For series [1], the system named is β-lactamase activity of S. aureus SHY97-4320. The series is described as follows: β-lactamase activity, nitrocefin assay, human LF. Format: cell-based, Staphylococcus aureus. Here is the method: Penicillin G was purchased from Novopharm Limited (Toronto, Ontario, Canada). […] Antibiotic stock solutions were always freshly prepared and diluted to the desired concentration in Mueller Hinton broth (MHB) medium (Difco Laboratories, Detroit, MI). β-Lactamase activity was measured using a quantitative spectrophotometric assay with the chromogenic cephalosporin nitrocefin. Bacterial cells were first exposed to penicillin and/or LF during 4 and 22-h in broth. At each time point, the number of cfu/ml were determined and cells aliquots were centrifuged.
The pellets were suspended in 10 mM HEPES buffer (pH 7.4) to an OD415 nm of 0.4 for PC-1 and 4 for strain SHY97-4320. Nitrocefin (100 μM) was added to 20 μl of cells in a final volume of 200 μl. Hydrolysis was measured at 486 nm on a Spectra Max 250 Microplate Spectrophotometer System of Molecular Device (Fisher Scientific, Ottawa, Canada). β-Lactamase activity was expressed as ΔO.D.486 nm/min and corrected for bacterial OD.

Series [2] concerns β-lactamase activity of S. aureus PC-1. The series is described as follows: β-lactamase activity, nitrocefin assay, human LF. To be noted: incubation for 4 h. It is filed as cell-based.
Sequence of β-lactamase activity of S. aureus PC-1 (P00807 25-281): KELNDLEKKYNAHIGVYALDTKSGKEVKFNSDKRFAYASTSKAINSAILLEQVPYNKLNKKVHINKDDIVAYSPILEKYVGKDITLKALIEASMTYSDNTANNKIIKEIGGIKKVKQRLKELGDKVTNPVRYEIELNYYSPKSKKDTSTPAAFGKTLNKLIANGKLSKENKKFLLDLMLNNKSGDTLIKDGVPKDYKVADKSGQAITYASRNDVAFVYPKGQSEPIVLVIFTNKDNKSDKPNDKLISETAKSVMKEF

Sequence of β-lactamase activity of S. aureus SHY97-4320 (P00807 25-281): as above

B1: human LF: Human LF (Sigma) (protein, UniProt P02788 20-710, looked up)
Lactotransferrin: GRRRSVQWCAVSQPEATKCFQWQRNMRKVRGPPVSCIKRDSPIQCIQAIAENRADAVTLDGGFIYEAGLAPYKLRPVAAEVYGTERQPRTHYYAVAVVKKGGSFQLNELQGLKSCHTGLRRTAGWNVPIGTLRPFLNWTGPPEPIEAAVARFFSASCVPGADKGQFPNLCRLCAGTGENKCAFSSQEPYFSYSGAFKCLRDGAGDVAFIRESTVFEDLSDEAERDEYELLCPDNTRKPVDKFKDCHLARVPSHAVVARSVNGKEDAIWNLLRQAQEKFGKDKSPKFQLFGSPSGQKDLLFKDSAIGFSRVPPRIDSGLYLGSGYFTAIQNLRKSEEEVAARRARVVWCAVGEQELRKCNQWSGLSEGSVTCSSASTTEDCIALVLKGEADAMSLDGGYVYTAGKCGLVPVLAENYKSQQSSDPDPNCVDRPVEGYLAVAVVRRSDTSLTWNSVKGKKSCHTAVDRTAGWNIPMGLLFNQTGSCKFDEYFSQSCAPGSDPRSNLCALCIGDEQGENKCVPNSNERYYGYTGAFRCLAENAGDVAFVKDVTVLQNTDGNNNEAWAKDLKLADFALLCLDGKRKPVTEARSCHLAMAPNHAVVSRMDKVERLKQVLLHQQAKFGRNGSDCPDKFCLFQSETKNLLFNDNTECLARLHGKTTYEKYLGPQYVAGITNLKKCSTSPLLEACEFLRK
Regarding B1, the β-lactamase activity result in series [1] (1 mg/ml human LF added at the same time as 8 μg/ml penicillin G, P<0.001) was “an important reduction of the β-lactamase activity”; in series [1] (human LF 1 mg/ml alone) it was “no β-lactamase activity”. In addition, the “reduction of β-lactamase activity” value in series [2] was 50%.

For the origin of these results see patent US20030134779A1, “Method and composition for treatment and/or prevention of antibiotic-resistant microorganism infections” (priority 2002, published 2003).
